Data published in article PMC8087788, “Parallel G-quadruplexes recruit the HSV-1 transcription factor ICP4 to promote viral transcription in herpes virus-infected human cells”.

T1: ICP4 (nuclear extract) (HSV-1 strain F) (UniProt P08392)
T1 sequence: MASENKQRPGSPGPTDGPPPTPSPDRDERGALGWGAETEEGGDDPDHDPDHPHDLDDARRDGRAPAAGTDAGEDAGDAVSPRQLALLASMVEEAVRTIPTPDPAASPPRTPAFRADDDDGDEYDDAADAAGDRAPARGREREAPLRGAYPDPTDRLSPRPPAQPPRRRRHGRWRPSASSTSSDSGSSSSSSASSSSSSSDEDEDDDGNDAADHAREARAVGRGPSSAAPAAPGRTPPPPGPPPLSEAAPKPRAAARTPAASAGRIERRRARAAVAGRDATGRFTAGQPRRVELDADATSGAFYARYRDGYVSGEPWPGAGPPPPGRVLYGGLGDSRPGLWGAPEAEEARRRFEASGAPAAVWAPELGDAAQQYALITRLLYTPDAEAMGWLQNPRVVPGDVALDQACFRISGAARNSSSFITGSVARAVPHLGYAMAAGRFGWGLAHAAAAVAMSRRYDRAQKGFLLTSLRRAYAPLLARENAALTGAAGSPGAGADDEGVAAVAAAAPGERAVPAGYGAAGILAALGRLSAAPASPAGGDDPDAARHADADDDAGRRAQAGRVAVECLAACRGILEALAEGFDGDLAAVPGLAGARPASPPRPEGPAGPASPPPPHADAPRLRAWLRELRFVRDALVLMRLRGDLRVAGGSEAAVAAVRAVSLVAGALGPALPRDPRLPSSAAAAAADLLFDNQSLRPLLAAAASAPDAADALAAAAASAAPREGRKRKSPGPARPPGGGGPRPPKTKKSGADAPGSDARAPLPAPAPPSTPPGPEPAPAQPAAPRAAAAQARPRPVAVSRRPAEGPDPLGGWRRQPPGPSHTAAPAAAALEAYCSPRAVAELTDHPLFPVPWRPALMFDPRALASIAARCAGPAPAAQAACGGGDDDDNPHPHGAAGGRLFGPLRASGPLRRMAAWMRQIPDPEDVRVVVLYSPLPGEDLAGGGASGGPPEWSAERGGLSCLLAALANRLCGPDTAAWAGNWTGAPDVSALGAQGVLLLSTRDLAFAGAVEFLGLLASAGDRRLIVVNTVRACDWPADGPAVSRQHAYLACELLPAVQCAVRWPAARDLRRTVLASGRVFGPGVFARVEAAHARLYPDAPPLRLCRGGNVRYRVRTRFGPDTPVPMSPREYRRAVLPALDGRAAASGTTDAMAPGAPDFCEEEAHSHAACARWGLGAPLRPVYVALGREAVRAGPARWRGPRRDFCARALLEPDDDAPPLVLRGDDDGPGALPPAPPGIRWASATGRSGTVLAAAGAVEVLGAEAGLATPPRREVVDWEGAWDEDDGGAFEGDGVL

T2: ufICP4 (ultrafiltrated ICP4) (HSV-1 strain F, UniProt P08392 1-1298)
T2 sequence: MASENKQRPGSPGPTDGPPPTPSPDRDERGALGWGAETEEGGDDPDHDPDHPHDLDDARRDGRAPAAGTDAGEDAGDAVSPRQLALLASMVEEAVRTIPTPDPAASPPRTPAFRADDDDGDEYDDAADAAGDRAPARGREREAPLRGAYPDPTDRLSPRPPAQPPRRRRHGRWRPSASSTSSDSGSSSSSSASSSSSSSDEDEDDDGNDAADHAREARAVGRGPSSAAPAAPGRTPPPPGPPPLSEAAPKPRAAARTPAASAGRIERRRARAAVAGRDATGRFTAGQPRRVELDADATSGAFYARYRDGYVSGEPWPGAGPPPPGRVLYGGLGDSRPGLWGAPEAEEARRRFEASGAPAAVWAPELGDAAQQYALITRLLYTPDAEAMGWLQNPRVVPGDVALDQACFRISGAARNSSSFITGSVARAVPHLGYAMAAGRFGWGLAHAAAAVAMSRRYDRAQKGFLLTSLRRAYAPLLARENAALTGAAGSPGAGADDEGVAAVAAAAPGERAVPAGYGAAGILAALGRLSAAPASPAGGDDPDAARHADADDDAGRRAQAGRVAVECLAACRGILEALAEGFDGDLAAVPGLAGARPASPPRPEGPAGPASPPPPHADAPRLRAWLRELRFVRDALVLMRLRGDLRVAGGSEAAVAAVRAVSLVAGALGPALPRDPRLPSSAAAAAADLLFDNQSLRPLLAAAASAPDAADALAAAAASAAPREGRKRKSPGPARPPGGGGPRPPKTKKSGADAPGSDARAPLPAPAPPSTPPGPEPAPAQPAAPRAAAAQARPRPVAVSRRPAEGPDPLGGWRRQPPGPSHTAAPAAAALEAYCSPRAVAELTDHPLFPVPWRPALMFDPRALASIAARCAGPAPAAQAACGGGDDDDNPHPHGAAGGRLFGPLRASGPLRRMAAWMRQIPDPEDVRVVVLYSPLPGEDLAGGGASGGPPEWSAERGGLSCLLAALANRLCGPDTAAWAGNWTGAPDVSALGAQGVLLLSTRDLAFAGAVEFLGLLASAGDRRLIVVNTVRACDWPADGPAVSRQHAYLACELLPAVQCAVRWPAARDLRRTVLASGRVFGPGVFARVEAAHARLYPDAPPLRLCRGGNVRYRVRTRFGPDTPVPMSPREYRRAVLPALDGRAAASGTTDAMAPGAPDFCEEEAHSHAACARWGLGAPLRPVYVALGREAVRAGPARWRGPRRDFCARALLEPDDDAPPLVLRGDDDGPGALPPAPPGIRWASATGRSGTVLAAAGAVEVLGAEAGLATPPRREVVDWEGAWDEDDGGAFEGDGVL


Tests used:
[1] = target: T1, ICP4 (nuclear extract) (HSV-1 strain F); test: pull-down; details: XL pull-down: oligos folded in 20 mM PB pH 7.4, 80 mM KCl, 4 C, 45 min, wash 50 mM Tris-HCl pH 7.5, 150 mM NaCl; ICP4 EMSA: 20 mM Tris-HCl pH 8, 25 mM KCl …
[2] = target: T2, ufICP4 (ultrafiltrated ICP4); test: EMSA; 5-10x ufICP4; XL pull-down: oligos folded in 20 mM PB pH 7.4, 80 mM KCl, 4 C, 45 min, wash 50 mM Tris-HCl pH 7.5, 150 mM NaCl; ICP4 EMSA: 20 mM Tris-HCl pH 8, 25 mM KCl, 1.5; details: protein: native, chain copies: 2, label: 5' FAM
ICP8 [3] = target: T3, ICP8 (HSV-1, UniProt P04296 1-1196); test: EMSA; 0-3 ug ICP8; Na+ and K+ buffers; XL pull-down: oligos folded in 20 mM PB pH 7.4, 80 mM KCl, 4 C, 45 min, wash 50 mM Tris-HCl pH 7.5, 150 mM NaCl; ICP4 EMSA: 20 mM Tris-HCl pH 8, 25 mM KCl, 1.5; details: protein: recombinant; tags: GST; label: 32P (Methods) / 33P; G4
ICP8 [4] = target: T3, ICP8; test: EMSA; 0-3 ug ICP8; XL pull-down: oligos folded in 20 mM PB pH 7.4, 80 mM KCl, 4 C, 45 min, wash 50 mM Tris-HCl pH 7.5, 150 mM NaCl; ICP4 EMSA: 20 mM Tris-HCl pH 8, 25 mM KCl, 1.5; details: protein: recombinant; tags: GST; label: 32P (Methods) / 33P

T3 sequence (P04296 whole entry): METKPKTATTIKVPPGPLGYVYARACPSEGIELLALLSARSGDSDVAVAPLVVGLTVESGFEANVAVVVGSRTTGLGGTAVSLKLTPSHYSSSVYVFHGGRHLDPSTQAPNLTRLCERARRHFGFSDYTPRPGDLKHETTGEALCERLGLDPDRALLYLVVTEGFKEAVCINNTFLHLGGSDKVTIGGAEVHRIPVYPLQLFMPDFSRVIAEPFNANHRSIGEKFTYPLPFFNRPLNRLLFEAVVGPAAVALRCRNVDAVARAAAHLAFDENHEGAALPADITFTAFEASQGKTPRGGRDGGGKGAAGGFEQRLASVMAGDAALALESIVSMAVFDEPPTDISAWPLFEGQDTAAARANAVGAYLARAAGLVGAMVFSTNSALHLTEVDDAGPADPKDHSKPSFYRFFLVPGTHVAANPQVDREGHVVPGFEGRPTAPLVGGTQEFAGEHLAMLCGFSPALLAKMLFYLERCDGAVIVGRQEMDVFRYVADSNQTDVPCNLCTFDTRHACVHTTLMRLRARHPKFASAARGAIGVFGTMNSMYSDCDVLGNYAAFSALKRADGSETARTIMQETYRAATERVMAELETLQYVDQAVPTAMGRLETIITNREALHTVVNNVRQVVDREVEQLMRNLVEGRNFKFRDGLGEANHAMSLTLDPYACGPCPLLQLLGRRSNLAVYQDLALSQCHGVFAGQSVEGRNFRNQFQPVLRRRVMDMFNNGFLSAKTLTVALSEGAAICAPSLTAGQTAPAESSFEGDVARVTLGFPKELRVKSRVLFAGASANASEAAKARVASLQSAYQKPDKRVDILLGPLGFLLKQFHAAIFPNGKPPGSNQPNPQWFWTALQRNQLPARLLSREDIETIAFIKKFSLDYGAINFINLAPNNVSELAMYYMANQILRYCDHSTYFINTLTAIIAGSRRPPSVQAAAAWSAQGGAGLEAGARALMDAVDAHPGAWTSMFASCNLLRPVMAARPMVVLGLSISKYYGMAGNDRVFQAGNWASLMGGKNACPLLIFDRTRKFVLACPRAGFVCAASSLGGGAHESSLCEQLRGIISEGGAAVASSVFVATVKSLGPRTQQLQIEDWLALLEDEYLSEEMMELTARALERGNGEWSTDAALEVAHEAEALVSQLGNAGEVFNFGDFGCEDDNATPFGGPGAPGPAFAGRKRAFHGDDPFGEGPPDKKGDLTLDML

Molecule	binding signal [1]	binding result (ICP8 [3])	other results
TTTTTGGGGAGGGTGGGGAGGGTGGGGAAGG [B-myc]	2.5 fold vs IE3	–	–
TTTTTGGGGGCGAGGGGCGGGAGGGGGCGAGGGGGGGGGCGAGGGGCGGGAGGGGGCGAGGGG [B-un2L2]	2.5 fold vs IE3	–	–
CGGGGCGGGCCGGGGGCGGGG [B-VEGF]	2.5 fold vs IE3	–	–
TTTTTCCGATCGTCCACACGGAGC (double strand) [B-IE3 (ICP4 consensus; IE-CS)]	–	–	binding signal (fold vs IE3 (reference)) [1]: 1
GGGGGCGAGGGGCGGGAGGGGGCGAGGGG (structured_DNA) [F-un2]	–	–	binding result ([2]; G4): binds
GGGTTAGGGTTAGGGTTAGGG (structured_DNA) [hTel (radiolabelled)]	–	no binding	–
GGGAGGCGTGGCCTGGGCGGGACTGGGG (structured_DNA) [LTR-III (radiolabelled)]	–	no binding	–
GGAGTCGTGTCGCGTGTCGAGCGTGTGTAGTGG (ssDNA) [F-G-rich-scrambled]	–	–	binding result ([2]; unfolded): no binding
TTTTTTTTTTTTTTTTTTTTTTTTTTTTTT (ssDNA) [PolyT (T30)]	–	–	binding result (ICP8 [4]): binds
GGGGGCGAGGGGCGGGAGGGGGCGAGGGG (structured_DNA) [un2 (radiolabelled)]	–	no binding	–
